Reference: paper PMC4624963, “Enzymatic Characterization of Recombinant Food Vacuole Plasmepsin 4 from the Rodent Malaria Parasite Plasmodium berghei” (PLoS ONE, 2015)
Where no end group is shown, it is not given here.

How the values were obtained:
[1] = molecular target: plasmepsin 4 from Plasmodium ovalae (P. ovalae); experiment: enzyme inhibition kinetics (Ki of competitive inhibition); initial cleavage velocities of a chromogenic peptide substrate at varied inhibitor concentration; plasmepsins pre-incubated in 100 mM sodium formate pH 4.5, 37°C, 5 min to convert zymogen to mature enzyme
[2] = molecular target: plasmepsin 4 from Plasmodium vivax (Plasmodium vivax); experiment: as above
[3] = molecular target: plasmepsin 4 from Plasmodium malariae (Plasmodium malariae); experiment: as above
[4] = molecular target: human cathepsin D (human) (UniProt P07339); experiment: enzyme inhibition kinetics (Ki of competitive inhibition); initial cleavage velocities of a chromogenic peptide substrate at varied inhibitor concentration; hcatD pre-incubated in 200 mM sodium formate pH 3.7, 37°C, 5 min
[5] = molecular target: mature plasmepsin 4 of Plasmodium berghei (PbPM4), auto-matured from semi-proPbPM4 (Plasmodium berghei ANKA); experiment: enzyme inhibition kinetics (Ki of competitive inhibition); initial cleavage velocities of a chromogenic peptide substrate at varied inhibitor concentration, spectrophotometric; proPbPM4 pre-incubated in 100 mM sodium citrate pH 5.0, 37°C, 5 min; tight-binding or non-tight-binding competitive fit

Row | Binder | Ki [5] [nM] | also measured
1 | KPYEFRQF (not fully specified (residue 5); printed as KPYEFΨRQF; also: Ψ pseudo-peptide bond between F5 and R6) [compound 1 (KPYEFΨRQF), peptidomimetic inhibitor designed for PbPM4] | 3900 | Ki [1]: 1900 nM; Ki [2]: 426 nM; Ki [3]: 445 nM; Ki [4]: 41000 nM
2 | KPFSLLQF (not fully specified (residue 5); printed as KPFSLΨLQF; also: Ψ pseudopeptide bond between L5 and L6) [compound 2 (KPFSLΨLQF), peptidomimetic inhibitor designed for PfPM1] | 379 | –
3 | KPVEFRQT (not fully specified (residue 5); printed as KPVEFΨRQT; also: Ψ pseudopeptide bond between F5 and R6) [compound 4 (KPVEFΨRQT), peptidomimetic inhibitor designed for PfPM4] | 502 | –
4 | KPLEFFRV (not fully specified (residue 5); printed as KPLEFΨFRV; also: Ψ pseudopeptide bond between F5 and F6) [compound 5 (KPLEFΨFRV), peptidomimetic inhibitor designed for PvPM4] | 1.4 | –
5 | KPLEFYRV (not fully specified (residue 5); printed as KPLEFΨYRV; also: Ψ pseudopeptide bond between F5 and Y6) [compound 6 (KPLEFΨYRV), peptidomimetic inhibitor designed for PoPM4] | 0.12 | –
6 | KPFELAWT (not fully specified (residue 5); printed as KPFELΨAWT; also: Ψ pseudopeptide bond between L5 and A6) [compound 7 (KPFELΨAWT), peptidomimetic inhibitor designed for PmPM4] | 8100 | –
